Measurements: paper PMC8588562, “Layer-by-Layer Encapsulation of Herbicide-Degrading Bacteria for Improved Surface Properties and Compatibility in Soils” (Polymers, 2021)

Test system: CCNc1nc(Cl)nc(NC(C)C)n1
Assay: cells, lysate or membranes
Details: apparent, whole uncoated E. coli cells (free cells), PBS (0.1 M, pH 7.4), room temperature, 20 min, 2.5 mg/mL cells, ATZ 1-20 mg/L

“atrazine chlorohydrolase (AtzA) (Pseudomonas sp. ADP)” showed a Km of 89.12 ± 29.48 µM.
